Experimental data from PMC10166511, “Fast cross-linking by DOPA2 promotes the capturing of a stereospecific protein complex over nonspecific encounter complexes” (Biophysics Reports, 2022).

Molecular target: T1, EIIA^Glc (UniProt P69783 2-169)
T1 construct: EIIA^Glc, functional subunit of Enzyme II of the bacterial glucose phosphotransferase system; Species is stated only for enzyme I (E. coli); source: purified as previously described (Garrett et al. 1999; Xing et al. 2014)
Test: SPR + ELISA; no accurate KD obtained; format and conditions not told
Conditions: both partners purified

T1 sequence (P69783 2-169): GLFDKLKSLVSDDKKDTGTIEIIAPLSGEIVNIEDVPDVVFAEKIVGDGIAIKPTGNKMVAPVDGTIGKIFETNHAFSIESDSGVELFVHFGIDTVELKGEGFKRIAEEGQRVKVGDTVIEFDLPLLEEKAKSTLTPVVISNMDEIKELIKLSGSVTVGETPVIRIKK

B1: EIIB^Glc (domain or fragment)
chain: EDATEDAKATGTSEMAPALVAAFGGKENITNLDACITRLRVSVADVSKVDQAGLKKLGAAGVVVAGSGVQAIFGTKSDNLKTEMDEYIRN
notes: EIIB^Glc, functional subunit of Enzyme II of the bacterial glucose phosphotransferase system; Species is stated only for enzyme I (E. coli); source: purified as previously described (Garrett et al. 1999; Xing et al. 2014)
Kd: > 10 µM
